For one substance, stoichiometry N results are on record in paper PMC3215731.

The assay concerns the target TNC-scTNFR2 (trimerization domain of human tenascin C fused to the N-terminus of the TNFR2-selective single-chain TNF) (human) (UniProt P24821). The experiment in a line: SEC; HPLC-SEC, BioSep-SEC-S2000 7.8x300 column, PBS, 0.5 ml/min, 50 µl sample at 0.1 to 0.5 mg/ml, against standard proteins; oligomerization state under native conditions. A general note: Size exclusion chromatography separates by hydrodynamic size, large species first.

In the case of “TNC-scTNFR2 (trimerization domain of human tenascin C fused to the N-terminus of the TNFR2-selective single-chain TNF) (from UniProt P24821 110-139) (ligand)”, the stoichiometry N – broadly, the number of molecules, sites or subunits per partner or assembly – stood at 3.
